Experimental data reported in patent US20030028002A1, “Cyclin D binding factor, and uses thereof” (published 2003).
Residue numbers refer to the chain shown, from its start. Blank lines part the entries; values can stand above or below the molecule they belong to.

Tests used:
cyclin D3 [1] = target: T1, cyclin D3 (mouse, UniProt P30282 1-292); assay: coinfected Sf9 cells, coprecipitation
T1 construct: 35S-labelled in vitro translation product in the pull-down; baculovirus product in Sf9 cells
T1 sequence (looked up): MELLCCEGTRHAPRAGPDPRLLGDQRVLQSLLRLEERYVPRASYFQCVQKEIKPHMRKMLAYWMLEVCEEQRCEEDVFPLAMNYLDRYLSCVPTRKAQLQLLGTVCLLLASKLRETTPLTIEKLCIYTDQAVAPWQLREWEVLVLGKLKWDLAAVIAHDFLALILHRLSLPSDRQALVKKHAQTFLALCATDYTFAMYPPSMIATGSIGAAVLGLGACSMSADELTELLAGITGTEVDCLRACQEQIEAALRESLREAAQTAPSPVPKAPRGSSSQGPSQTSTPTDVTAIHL

cyclin D2 [2] = target: T2, cyclin D2 (mouse, UniProt P30280 1-289); assay: coinfected Sf9 cells, coprecipitation
T2 construct: 35S-labelled in vitro translation product in the pull-down; baculovirus product in Sf9 cells
T2 sequence (P30280 whole entry): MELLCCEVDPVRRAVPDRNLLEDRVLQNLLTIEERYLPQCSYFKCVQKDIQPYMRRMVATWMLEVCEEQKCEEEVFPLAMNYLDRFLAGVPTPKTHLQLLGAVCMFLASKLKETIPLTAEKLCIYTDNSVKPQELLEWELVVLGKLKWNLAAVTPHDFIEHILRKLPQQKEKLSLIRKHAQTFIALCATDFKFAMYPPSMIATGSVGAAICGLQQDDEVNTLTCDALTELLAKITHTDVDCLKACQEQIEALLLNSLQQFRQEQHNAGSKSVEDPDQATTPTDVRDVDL

[3] = target: T3, DMP1 expressed in 293T cells (Mus musculus) (UniProt Q8CE22); assay: cell_activity
T3 sequence: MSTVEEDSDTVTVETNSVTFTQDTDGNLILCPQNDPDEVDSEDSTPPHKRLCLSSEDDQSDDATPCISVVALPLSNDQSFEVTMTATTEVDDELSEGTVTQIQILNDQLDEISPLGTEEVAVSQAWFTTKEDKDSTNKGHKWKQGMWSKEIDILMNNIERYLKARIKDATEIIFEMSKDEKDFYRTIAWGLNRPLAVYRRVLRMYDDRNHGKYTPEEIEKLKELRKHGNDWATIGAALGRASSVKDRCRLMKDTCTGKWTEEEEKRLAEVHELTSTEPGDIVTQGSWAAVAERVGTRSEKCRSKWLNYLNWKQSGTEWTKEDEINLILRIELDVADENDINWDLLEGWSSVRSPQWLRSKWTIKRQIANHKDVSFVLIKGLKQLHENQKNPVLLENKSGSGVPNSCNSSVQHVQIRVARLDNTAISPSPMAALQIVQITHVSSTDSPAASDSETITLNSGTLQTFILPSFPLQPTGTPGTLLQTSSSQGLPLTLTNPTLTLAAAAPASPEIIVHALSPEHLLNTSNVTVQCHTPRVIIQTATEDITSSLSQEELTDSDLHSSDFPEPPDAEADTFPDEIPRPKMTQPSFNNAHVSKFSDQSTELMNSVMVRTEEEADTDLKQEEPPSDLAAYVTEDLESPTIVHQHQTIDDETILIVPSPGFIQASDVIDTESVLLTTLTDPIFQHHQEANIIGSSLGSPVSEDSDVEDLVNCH

[4] = target: T4, DMP1 M11 (K319E) expressed in NIH-3T3 cells K319E (Mus musculus) (UniProt Q8CE22); assay: cell_activity; conditions: BS2 luciferase reporter
T4 sequence: T3 sequence with K320E

[5] = target: T5, DMP1 expressed in NIH-3T3 cells (Mus musculus) (UniProt Q8CE22); assay: cell_activity; conditions: BS2 luciferase reporter
T5 sequence: T3 sequence

[6] = target: T6, DMP1 M11 (K319E) K319E (Mus musculus) (UniProt Q8CE22); assay: EMSA; conditions: very faint band
T6 sequence: T3 sequence with K320E

cyclin D2-DMP1 complex = target: T7, cyclin D2-DMP1 complex (mouse, UniProt P30280 1-289); assay: coinfected Sf9 cells, immunoprecipitation with antiserum to DMP1
T7 construct: Complex formed in coinfected Sf9 cells
T7 sequence (P30280 whole entry, one chain of several): as the sequence (P30280 whole entry) above

D-type cyclins = assay: coexpression in Sf9 cells, coprecipitation (FIG. 3)
cyclin D1 [7] = target: T8, cyclin D1 (mouse, UniProt P25322 1-295); assay: anti-Flag immunoprecipitation from Sf9 lysates, Western blot for cyclin D1
T8 construct: 35S-labelled in vitro translation product in the pull-down; baculovirus product in Sf9 cells
T8 sequence (P25322 whole entry): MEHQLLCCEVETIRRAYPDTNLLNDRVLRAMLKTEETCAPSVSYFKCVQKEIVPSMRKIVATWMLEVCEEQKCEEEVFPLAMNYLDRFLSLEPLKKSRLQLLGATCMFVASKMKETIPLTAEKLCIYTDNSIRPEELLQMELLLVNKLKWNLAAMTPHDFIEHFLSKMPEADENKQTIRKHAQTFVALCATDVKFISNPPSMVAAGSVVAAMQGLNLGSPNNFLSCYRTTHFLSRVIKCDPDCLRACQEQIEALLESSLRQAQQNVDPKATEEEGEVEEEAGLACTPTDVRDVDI
From the text: The series of DMP1 deletion mutants and the K319E point mutant were then used to determine the cyclin D binding domain of DMP1. Expression vectors encoding murine wild-type DMP1, the corresponding deletion mutations, or K319E (i. e., wildtype DMP1 and M1-M11, defined in FIG. 10, Table 1) were cotransfected with an expression vector encoding cyclin D1 into SF9 cells. Wildtype DMP1 and M1-M11 were expressed containing Flag-tags. SF9 lysates were immunoprecipitated with an antibody raised against the Flag-tag. The immunoprecipitates were resolved individually by gel electrophoresis, and then Western blotted with an antibody raised against cyclin D1. […] Therefore, the cyclin D1 binding domain is missing in the M9 deletion mutant. […] Therefore, deletion of the N-terminal domain of DMP1 (i.e., amino acids 1-223) abrogates its ability to interact with D-type cyclins, and thus, the region of DMP1 from residues 1-223 contains a specific cyclin D interaction motif required for D-type cyclin-DMP1 association.

cyclin D1 [8] = target: T8, cyclin D1; assay: GST pull-down of 35S-labelled in vitro translated cyclin
Experimental: (§1) Because DMP1 interacted with cyclin D2 in yeast, the ability of a glutathione S-transferase (GST)-DMP1 fusion protein to bind D-type cyclins in vitro is examined. GST is fused to residues 176-761 of DMP1 (in lieu of GAL4 in the original cDNA clone), and the bacterially synthesized recombinant protein is incubated with [³⁵S]methionine-labeled D-type cyclins prepared by transcription and translation in vitro. As a positive control, GST-RB which can specifically bind D-type cyclins in this assay is used (15). Bound cyclins recovered on washed glutathione-Sepharose beads are analyzed by electrophoresis on denaturing gels. […] GST-DMP1 is less efficient than GST-RB in binding cyclins D2 and D3 (˜4-fold less binding), and under these conditions, an interaction with D1 is not detected (lanes 3, 7, 11). No labeled proteins bind to GST alone (lanes 4, 8, 12), and neither cyclin A nor cyclin E bind to GST-RB or to GST-DMP1. A cyclin D2 mutant disrupted in an amino-terminal Leu-X-Cys-X-Glu pentapeptide that is required for high efficiency GST-RB binding is not detectably compromised in its interaction with GST-DMP1 (negative data not shown); in agreement, DMP1 bears no homology to RB or to RB-related family members (p107 and p130).

cyclin D3 [9] = target: T1, cyclin D3; assay: GST pull-down of 35S-labelled in vitro translated cyclin on glutathione-Sepharose, gel autoradiography
Experimental: as §1

cyclin D2 [10] = target: T2, cyclin D2; assay: as above
Experimental: as §1

- binding ratio of cyclin to RB (cyclin D3 [1]): 1 ratio (1:1)
- binding ratio of cyclin to RB (cyclin D2 [2]): 1 ratio (1:1)
Molecule: RB (retinoblastoma protein) coexpressed in Sf9 cells

Molecule: AATTGACCCGGATGTAGGTACGC (double strand) [BS1]
- activity (fold activation) ([3]; 6x BS1 luciferase reporter): 7

Molecule: AATTGACCCGTATGTAGGTACGC (double strand) [BS2]
- activity (fold activation) [4]: 1.1
- activity (fold activation) ([3]; 8x BS2 luciferase reporter): 20
- activity (fold activation) [5]: 8.4
- binding signal (% of wild type) [6]: 2

- binding result (cyclin D2-DMP1 complex): no binding
B1: catalytically inactive CDK4 mutant (enzyme, mouse, UniProt P30285 1-303, looked up)
chain: MAATRYEPVAEIGVGAYGTVYKARDPHSGHFVALMSVRVPNGGAAGGGLPVSTVREVALLRRLEAFEHPNVVRLMDVCATSRTDRDIKVTLVFEHIDQDLRTYLDKAPPPGLPVETIKDLMRQFLSGLDFLHANCIVHRDLKPENILVTSNGTVKLADFGLARIYSYQMALTPVVVTLWYRAPEVLLQSTYATPVDMWSVGCIFAEMFRRKPLFCGNSEADQLGKIFDLIGLPPEDDWPREVSLPRGAFAPRGPRPVQSVVPEMEESGAQLLLEMLTFNPHKRISAFRALQHSYLHKEESDAE
notes: also called mutant CDK4

- percent of DMP1 molecules in stable complexes with D-type cyclins (D-type cyclins): < 15%
B2: DMP1 (cyclin D-binding myb-like protein), murine, full length (protein)
chain: MSTVEEDSDTVTVETVNSVTFTQDTDGNLILHCPQNDPDEVDSEDSTEPPHKRLCLSSEDDQSIDDATPCISVVALPLSENDQSFEVTMTATTEVADDELSEGTVTQIQILQNDQLDEISPLGTEEVSAVSQAWFTTKEDKDSLTNKGHKWKQGMWSKEEIDILMNNIERYLKARGIKDATEIIFEMSKDERKDFYRTIAWGLNRPLFAVYRRVLRMYDDRNHVGKYTPEEIEKLKELRIKHGNDWATIGAALGRSASSVKDRCRLMKDTCNTGKWTEEEEKRLAEVVHELTSTEPGDIVTQGVSWAAVAERVGTRSEKQCRSKWLNYLNWKQSGGTEWTKEDEINLILRIAELDVADENDINWDLLAEGWSSVRSPQWLRSKWWTIKRQIANHKDVSFPVLIKGLKQLHENQKNNPVLLENKSGSGVPNSNCNSSVQHVQIRVARLEDNTAISPSPMAALQIPVQITHVSSTDSPAASADSETITLNSGTLQTFEILPSFPLQPTGTPGTYLLQTSSSQGLPLTLTTNPTLTLAAAAPASPEQIIVHALSPEHLLNTSDNVTVQCHTPRVIIQTVATEDITSSLSQEELTVDSDLHSSDFPEPPDALEADTFPDEIPRPKMTIQPSFNNAHVSKFSDQNSTELMNSVMVRTEEEIADTDLKQEEPPSDLASAYVTEDLESPTIVHQVHQTIDDETILIVPSPHGFIQASDVIDTESVLPLTTLTDPIFQHHQEASNIIGSSLGSPVSEDSKDVEDLVNCH
modifications: multiple phosphorylated forms when made in Sf9 cells (sites not given)

- binding result (cyclin D1 [7]): no binding
B3: Flag-tagged DMP1 deletion mutant M9 (amino acids 234-761) (other)
chain: KLKELRIKHGNDWATIGAALGRSASSVKDRCRLMKDTCNTGKWTEEEEKRLAEVVHELTSTEPGDIVTQGVSWAAVAERVGTRSEKQCRSKWLNYLNWKQSGGTEWTKEDEINLILRIAELDVADENDINWDLLAEGWSSVRSPQWLRSKWWTIKRQIANHKDVSFPVLIKGLKQLHENQKNNPVLLENKSGSGVPNSNCNSSVQHVQIRVARLEDNTAISPSPMAALQIPVQITHVSSTDSPAASADSETITLNSGTLQTFEILPSFPLQPTGTPGTYLLQTSSSQGLPLTLTTNPTLTLAAAAPASPEQIIVHALSPEHLLNTSDNVTVQCHTPRVIIQTVATEDITSSLSQEELTVDSDLHSSDFPEPPDALEADTFPDEIPRPKMTIQPSFNNAHVSKFSDQNSTELMNSVMVRTEEEIADTDLKQEEPPSDLASAYVTEDLESPTIVHQVHQTIDDETILIVPSPHGFIQASDVIDTESVLPLTTLTDPIFQHHQEASNIIGSSLGSPVSEDSKDVEDLVNCH
notes: not shown: Flag-tag

- binding result (cyclin D1 [8]): no binding
- fold less binding than GST-RB (cyclin D3 [9]): ~4 fold less binding than GST-RB
- fold less binding than GST-RB (cyclin D2 [10]): ~4 fold less binding than GST-RB
B4: GST-DMP1 fusion protein (GST fused to residues 176-761 of DMP1) (other)
chain: GIKDATEIIFEMSKDERKDFYRTIAWGLNRPLFAVYRRVLRMYDDRNHVGKYTPEEIEKLKELRIKHGNDWATIGAALGRSASSVKDRCRLMKDTCNTGKWTEEEEKRLAEVVHELTSTEPGDIVTQGVSWAAVAERVGTRSEKQCRSKWLNYLNWKQSGGTEWTKEDEINLILRIAELDVADENDINWDLLAEGWSSVRSPQWLRSKWWTIKRQIANHKDVSFPVLIKGLKQLHENQKNNPVLLENKSGSGVPNSNCNSSVQHVQIRVARLEDNTAISPSPMAALQIPVQITHVSSTDSPAASADSETITLNSGTLQTFEILPSFPLQPTGTPGTYLLQTSSSQGLPLTLTTNPTLTLAAAAPASPEQIIVHALSPEHLLNTSDNVTVQCHTPRVIIQTVATEDITSSLSQEELTVDSDLHSSDFPEPPDALEADTFPDEIPRPKMTIQPSFNNAHVSKFSDQNSTELMNSVMVRTEEEIADTDLKQEEPPSDLASAYVTEDLESPTIVHQVHQTIDDETILIVPSPHGFIQASDVIDTESVLPLTTLTDPIFQHHQEASNIIGSSLGSPVSEDSKDVEDLVNCH
notes: Made in bacteria, held on glutathione-Sepharose beads; not shown: glutathione S-transferase encoded by pGEX-3X (Pharmacia)
